In the DeepSol protein solubility set:

test: soluble on expression in E. coli; label from the status in PepcDB or PDB records

Sequence	soluble on expression in E. coli
AEMEVQIVRNDPPLRYDTNLPVDLLHMVYAGRGATGSSGVVFGTWYRTIQDRTITDFPLTTRSADFRDGRMSKTFMTALVLSLQACGRLYVGQRHYSAFECAVLCLYLLYRNTHGAADDSDRAPVTFGDLLGRLPRYLACLAAVIGTEGGRPQYRYRDDKLPKTQFAAGGGRYEHGALASHIVIATLMHHGVLPAAPGDVPRDASTHVNPDGVAHHDDINRAAAAFLSRGHNLFLWEDQTLLRATANTITALGVIQRLLANGNVYADRLNNRLQLGMLIPGAVPSEAIARGASGSDSGAIKSGDNNLEALCANYVLPLYRADPAVELTQLFPGLAALCLDAQAGRPVGSTRRVVDMSSGARQAALVRLTALELINRTRTNPTPVGEVIHAHDALAIQYEQGLGLLAQQARIGLGSNTKRFSAFNVSSDYDMLYFLCLGFIPQYLSAV	soluble
MTCFKIRLSKQPLKGRTMNKPFITQAQLALYKYQPSSKYYGKTMAYTFASELLDYSKVNKFIIHEEIQCFLNRRISNNIWKIYFSDESVAYIKILELQDDYSRGIEIKTFDFNPNVGDVFG	not soluble
MPILQPKLMKQLMKFAIFGNTYQPKKSLHALRLFELLKKQGAEICMCREFYQFLTADLKMEVPVDALLEGNDFTADMVISIGGDGTFLKAARRVGRKQIPILGINTGRLGFLADVSPEEMEVTFEEIQAGRYSVEERSVLQLICNDRNLQESPYALNEIAVLKRDSSSMISIRTAINGAYLNTYQADGLVIATPTGSTAYSLSVGGPIIVPHSNTIAITPVAPHSLNVRPIVIRDDWEITLDVESRSHNFLVAIDGSSETCKETTQLTIRRADYSIKVVKRFNHIFFDTLRSKMMWGADGRRLEHHHHHH	soluble
MGSDKIHHHHHHMTKSLNGLRILNTRPREQAQVLNKKIIESGGIPIDCPTMEIMASETNWINNLPDLTSVNQAIFVSTNAVRYFMMELASKNINWPNSIRVTAIGKGTSRVLNEFNIQVSDVPELPDSEHLLTLNSLQQIRNQTILLVKGEGGRQLIEEYLMLKGAKLCLLSVYKRVMPAIDQEFINSLWRDDLVDIILLTSEQSIHNLFKMFSIEGQMWLQNKPCLVISDRLAKVASLFGIKKILISHPERMIGALFDYKD	not soluble
MPLLDIRHLTIEIDTPQGLVKAVDRMSLTMNEGEIRGLVGESGSGKSLVAKAIVGICKENWRVTADRMRLGNIDLLQLTPRERRRVIARDVAMIFQEPSTCLDPSEEVGRQLIESIPFRTFEGRWWERFTWRKKQAIALLHKVGIKDHKDIMSSYPYELTDGECQKVMIAMAIAAKPKLLIADEPTNDVDPITQSQILRLLSRMNQVNNTSILLIGHDLTTITQWADRITVMYCGQSVESAETAKIVAEPKHPYTAALLKAMPDFSDWIPHKQKLQSLPGSIPPLQHLPIGCRLGPRCPYAQRQCVEVPHSRWVKNHKFSCHFPLNMESPQ	not soluble
MGSDKIHHHHHHMKTFHLTTQSRDEMVDITSQIETWIRETGVTNGVAIVSSLHTTAGITVNENADPDVKRDMIMRLDEVYPWHHENDRHMEGNTAAHLKTSTVGHAQTLIISEGRLVLGTWQGVYFCEFDGPRTNRKFVVKLLTD	soluble
MKTQIIGVLGLGIFGQTLATELSSFGQDVIALDNNSTTIDFLADQVTKAAVGDITDIDFLRSAGIDTCDTVIIATGEHLESSALALLHCKKLGITNIIAKATNNNYEEVLYGMGANLVITPERSTAKDLASNILRCNISRIFHLEDDVALIELKIPNEWAGKSLHTLNLRQTYNVNVIGFRNEENGKLNTHFDPMNRLPNEGTILVVSDNRTLEKFDYLGYLKLEHHHHHH	soluble
MRHALITAGTKGLGKQVTEKLLAKGYSVTVTYHSDITAMKKMKETYKNMEERLQFVQADVTKKEDLHKIVEEAISRFGKIDFLINNAGPYVFERKKLVDYEEDEWNEMIQGNLTAVFHLLKLVVPIMRKQNFGRIINYGFQGADSAPGWIYRSAFAAAKVGLVSLTKTVAYEEAEYGITANMVCPGDIIGEMKEATIQEARQLKERNTPIGRSGTGEDIARTISFLCEEDSDMITGTIIEVTGAVDVIHRHR	not soluble
MGSDKIHHHHHHMAVWNANEMPERDRFPYWREVLCEAYIALNPILEGEQRFKGEVKANLLDCINVTTISSSRQKIHRRRLDISRMPHEVYFLNLQVKGQCRMMQGSREALLEPGDFSLVDSTEPYLNDYCSDDWTQYSFRIPRAMLKPLLKQADKQTAIRFTSAHPIASVAIDYLKSVAQNAEHIGTASTPIANHIVDLVAMAAGVSTTEEDRARGTLRSQLSRSVIQFIGAHAADPTLTPAKAAQHFKISVRYVHRLLEESGETFSRLLLKRRLERCADDLRAEAAISISEIAFRWGFNDLSHFSKTFRHHFGVAPRDYRGQ	not soluble
MCGISGEFRFDNQAADLAAVERITHHLAPRGPDAWGFHAQGPIALGHRRLKIMDLAEASGQPMIDPDLGLAMVFNGAIYNYPELRGELESLGYRFFSGGDTEVLLKGYHAWGADLLPRLNGMFAFAVWERDRQRLFLARDRLGIKPLYYSLDRSRLRFASSLPALLKGGDIASDLDPQALNFYLNFHAVVPAPHTLLEGVKKLPPATWMSVDLDGSCEQRTWWTLDYGPRPDERELTLDDWQERVLDGLREAVAIRQRAAREVGVLLSGGVDSSLLVGLLHEAGVDNLLTFSIGFEDAGGERGDEFQYSDLIAERYHTRHHRLRIGEHEVIEQLPAAFRAMSEPMVSHDCIAFYLLAREVSKHCKVVQSGQGADELFAGYHWYPKVDGADDAFAAYRAAFFDRDHEEYLATVGERFRVEDVAGRFVRDHFASPGAEAAVDKALRLDSTIMLVDDPVKRVDNMTMAWGLEARVPFLDYRLAELSARIPARFKLGDGGKQVLKGAARKVIPSEVIDRPKGYFPVPGLKHLQGRTREWVRELLLDPSQDRGLFQPAIFDRLLSDPDGDLTPLRG	not soluble
MAGASVKVAVRVRPFNSREMSRDSKCIIQMSGSTTTIVNPKQPKETPKSFSFDYSYWSHTSPEDINYASQKQVYRDIGEEMLQHAFEGYNVCIFAYGQTGAGKSYTMMGKQEKDQQGIIPQLCEDLFSRINDTTNDNMSYSVEVSYMEIYCERVRDLLNPKNKGNLRVREHPLLGPYVEDLSKLAVTSYNDIQDLMDSGNKPRTVAATNMNETSSRSHAVFNIIFTQKRHDAETNITTEKVSKISLVDLAGSERADSTGAKGTRLKEGANINKSLTTLGKVISALAEMDSGPNKNKKKKKTDFIPYRDSVLTWLLRENLGGNSRTAMVAALSPADINYDETLSTLRYADRAKQIRNTVSVNHHHHH	soluble
MSLQWECWPSLPCWRCFAASGRITLSIKRFTQNSRRHDMKITKINAIPLSYRLPEGKTVTMGVGSTIKRDAIIIRVETSEGITGYGEAHPGRSPGAITSLIHNTIAPMLIGMKATDCVGAWQRVHRMQLSSHGLGAGAALAISGIDMALWDIRGKAANMPLYELLGGSKRRIPAYAGGIALGYQPKESLAEEAQEYIARGYKALKLRIGDAARVDIERVRHVRKVLGDEVDILTDANTAYTMADARRVLPVLAEIQAGWLEEPFACNDFASYREVAKITPLVPIAAGENHYTRFEFGQMLDAGAVQVWQPDLSKCGGITEGIRIAAMASAYRIPINAHSSATGLNHAATIHFLAATENAGYFEACVSKFNPFRDMFGTSFEIGADGCVEPPDAPGLGIEVDESIFEKYPAVDGPGYVVKFEGHHHHHH	soluble
MFLTRSEYDRGVNTFSPEGRLFQVEYAIEAVKLGSTSIGIKTSEGVLLAAEKRSTSKLMVNDAIEKISKVDQHIGVTFAGLIADSRTLVERAQIEAQNFWFTYNRKIRVEDVTQSVANLALQFGDDDVKASMSRPFGVAMLFAGVDQEGAKLFHLDPSGTFIDCKAKSIGAASDGAEQNLKEQYHDALTIKEGLKMALAILKQVMEEKLNSANVEVVVIKPTVDAKGRPIGEFTRVSNEELDQVITSL	not soluble
MRALRLVTSESVTEGHPDKLADRISDAILDALIAQDKKARVAAETLVTTGLVFVAGEITTEGYVDIPNLVRKTVREVGYTRAKYGFDADTCAVLTAIDEQSPDIAGGVNLSYEWRVLKSTDPLDRVGAGDQGLMFGYATDETPELMPLPITLAHRLTMRLAEVRKTGLLPYLRPDGKAQVTVVYEGDKPLYVKTVVVSAQHSPEVEQEQLREDLIREVVRQAIPPEYLKDGETEYLINPSGRFILGGPHADTGLTGRKIIVDTYGGAVPHGGGAFSGKDPTKVDRSASYYARYMAKNIVAAGLARRALVELAYAIGKARPVSLRVETFGTGVLPDEKLTEIAKKVFDPRPLAIIEELDLLRPIYTPTSAYGHFGRPGFPWEETDRVEALRREAGL	soluble
MNITKIDWQKVNGLLPVIIQNISTREVLMLGYMNEEALTKTIKERKVTFFSRTKQRLWTKGEISGNFLNVEEMSLDCDNDTLLILVDPIGATCHTGEYSCFHQFTSPQSENKKQQFANWAWFIKLEQHLKEKKNADPSNSYTATLHAKGTKKIAQKVGEEGVETALAAVAQDKAEVISEATDLVYHLTVLLHNQDLQWYEIIAKLQERHQGIGLHPEGGNK	soluble
YTEEFDPSKYGMADSYDEQGNYIFPEGFDPETNEWLEGFDEQRQAWEARYAESERRFQLHTVQIEKNRVAAAEAAAAGEATNYSSESAEAAPAAANTEAEGGSLASDEQLAALREKLAGN	not soluble
CTCSPSHPQDAFCNSDIVIRAKVVGKKLVKEGPFGTLVYTIKQMKMYRGFTKMPHVQYIHTEASESLCGLKLEVNKYQYLLTGRVYDGKMYTGLCNFVERWDQLTLSQRKGLNYRYHLGCN	soluble
MGSDKIHHHHHHMSNKLTYIVASGDTYTSIVNKINQSTPLTVSQLADANPSIQANQLQIGQALDIPLSTDGLIPDDNPALLTPAAEFMGYWYPYSASCPKNATLSVALYGWGPQKVIEWGKQADVQSHLNGEKYLSFGGGSESGKFTEQALNEITTAITQGQIKGYDGIAYDVEVADANLGAQFANSFEAAKACGFKVLVTISHSAPYDVADKDQLMKSFFINPHIDILSPQLYSKGDESQNDYALTSGSSITWRDYASTKAAIVPSIVHASYYEAAKIYFKNQGVELSGYLQWK	not soluble
MGSDKIHHHHHHMDIYEKYGLKPVINADGKMTILGVSQVSDQVAAAQKQGAQNFFEMAELTVQTGRYLADLIGSEDALIVNSASAGIAQVLAGIIGRGNAYHVTHPYTTQITQREVIMPLGHDVDYGAPVDVMLAVAGAQPVLAGYANRCTAEQLAMQITPQTVAILYIKSHHTVQKSMLTIADALQVAHDHHLPLVLDAAAEGDLRRYLQLGVDVVIYSGAKAISGPASGLVLGRQTYVEWARQQNYGIGRAMKIGKENILGLVAAVEQYLTTGPESGASMKARLAPFIAELQTLPNVQVEMVQDGAGRDIFRASVRIAEAAKICQALRQGRPAIYPREYRVNEGLIEFDIRALTSAEMTQIVERLRTIIEEESTCN	not soluble
MGSDKIHHHHHHMNTSYLIDFLENKQVSTITKTKHSYLTYHGLEEGYTYVLKKGIVKTSIILKNGREFNLSYINSTDIVSLLRDEISAYTASPLNVRIESDEAIFYRIPRKTFWDYVNHDTHLQDYVRDYYRIKLTQNIKSLQWMTMNGKKGAVCAFIYKLIDIFGRRGATGILIDFPITNEEIANFCGISTRNSVNRIIHDLKEQHVIDIKNQKIFIYDENYLREFTI	not soluble
MLSIVCPPLSAQWAENFDHITALTSPPWRGQIADFAIIKKQLKLYVEYPDDLNESRIAITVPYFKTTTWKGDVKLDFRPTINNYLYCYLYCYGEISDSEFDYVALRWGSGSKGVDLLDVRLRVLPSGESSIVRSDILIDGSAYPLGTKPFTSFTVTYAVGSGWQLWVNGANDTGNETVLIGSSSFDVESPFQSGGLGIDCFYTKSRSKAFSFDNLSVSEGAVSPPEEEEEPIPLGKPTLNELMANPLEGGSEYIELYNPTDKPVVPSKFAIGILRNGSYTTTTALPTVADTLYPGQYIVFAKKSEGVTDFYPQAQNVVTMSNLPQLANKGFTIGLFEEGLDQPLEEVVYSPKMLGEGNVTRRGVSLERISFETPASDPTNWAGGLPSAGYATPGYLNSQSSNADTTQLGLPNNETEGNGKSYLPPASIAEE	not soluble
